Three molecules from patent publication US9394371B2, “Antibody-mediated disruption of quorum sensing in bacteria” (The Scripps Research Institute, priority 2007, dated 2016) can be followed below.

Where two headings read alike, the source gives them in different places.

Data set [1] relates to S. aureus RN4850. It is filed as cell-based.
In another data set the target is AIP-1. Nature of the data set: Competition ELISA (free native AIP against hapten-BSA coated plates). The data set is classed as binding, S. aureus. As to conditions: AP4-BSA coated plates.
The next data set concerns the target AIP-2. Described as above. The data set is classed as binding, S. aureus. The note with it: AP4-BSA coated plates.
The target of a further data set is AIP-3. Described as above. It is filed as binding, S. aureus. On the procedure: (§1) The optimal concentrations of the AP4-BSA conjugate as well as of each mAb were determined. 96 well ELISA plates were coated with the appropriate amount of AP4-BSA conjugate respectively. The plates were blocked with 4% skim milk, washed and mAbs were added at the predetermined optimal concentration. The plates were washed and free antigen, i.e. the native AIPs 1-4, was added to the wells in a concentration series starting at 100 μM. The plate was incubated for 1 hour at 37° C., thoroughly washed, and goat anti-mouse-horseradish peroxidase (HRP) conjugate (Pierce, Rockford, Ill.) was added. After an incubation period of 1 hour at RT, the plate was thoroughly washed again and the HRP substrate (TMB substrate kit; Pierce) was added, the reaction was allowed to develop for 15 minute and stopped by the addition of 2 M H2SO4. The absorbance at 450 nm was read and the values plotted using GraFit (Erithacus Software Ltd). The free antigen concentration at which the absorbance value is 50% of the maximum absorbance was considered the Kd of the antibody for its antigen.
as §1, with “For the competition ELISA analysis, the optimal concentrations” for “The optimal concentrations”, “of the AP1-BSA, AP3-BSA, or AP4-BSA conjugate,” for “of the AP4-BSA conjugate”, “or AP4-BSA conjugate, as well” for “the AP4-BSA conjugate as well”, “amount of AP1-BSA, AP3-BSA, or AP4-BSA conjugate” for “amount of AP4-BSA conjugate”, “blocked with 4 v % skim milk,” for “blocked with 4% skim milk,”, “for 15 minutes and stopped” for “for 15 minute and stopped”

In the next data set the target is AIP-4. The data set is described as above. It is filed as binding, S. aureus. On the procedure:
as §1
as §1, with “For the competition ELISA analysis, the optimal concentrations” for “The optimal concentrations”, “of the AP1-BSA, AP3-BSA, or AP4-BSA conjugate,” for “of the AP4-BSA conjugate”, “or AP4-BSA conjugate, as well” for “the AP4-BSA conjugate as well”, “amount of AP1-BSA, AP3-BSA, or AP4-BSA conjugate” for “amount of AP4-BSA conjugate”, “blocked with 4 v % skim milk,” for “blocked with 4% skim milk,”, “for 15 minutes and stopped” for “for 15 minute and stopped”

Another data set has as its system S. aureus Wood 46. It is filed as cell-based.
Data set [2] deals with S. aureus RN4850. The data set is classed as cell-based. The note with it: FIG. 3B.
Data set [3] has as its system S. aureus RN4850, NRS168 and Wood 46. The data set is classed as cell-based. As to conditions: 24-hour growth period; FIG. 4B.
The subject of data set [4] is S. aureus RN4850. Nature of the data set: Static biofilm analysis (crystal violet). The note with it: antibody 0.2 mg/mL, FIG. 4C. The data set is classed as cell-based.
For data set [5], the system named is agr QS system in S. aureus RN4850. It is filed as cell-based.
Another data set concerns Jurkat cells. Nature of the data set: S. aureus supernatant-induced PARP cleavage (apoptosis), Western blot. It is filed as cell-based, Human. As to conditions: 4 hours, FIG. 5.
Data set [6] deals with S. aureus RN4850. Description: Passive immunization against lethal S. aureus challenge. As to conditions: antibody i.p. 2 hours before 3×10^8 S. aureus RN4850 i.p.; FIG. 8. It is filed as in vivo, SKH1 mice. As for the experimental part: FIG. 8 illustrate survival data obtained from passive immunization of mice with AP4-24H11 against S. aureus infection. […] The numbers in parenthesis show number of survivors/number per group. The log rank statistic, p=0.001; n=6 for each group.
S. aureus RN4850 were stored at −80° C. in 20% glycerol/BHI medium, thawed and grown on BHI-agar plates overnight, and three separate colonies sampled to inoculate 2 mL CYGP medium. The inoculum culture was maintained 1 hour at 35° C. without shaking, followed by shaking at 200 rpm for 3 hours. Aliquots of the freshly grown inoculum culture were transferred to 5 mL CYGP medium in 50 mL conical polypropylene tubes (1/20 dilution) followed by shaking at 200 rpm, 35° C. for 3 hours. The bacteria were pelleted by centrifugation at 3,000 rpm (1300×G) for 10 minutes, 4° C. […]
Mab AP4-24H11, isotype-matched control IgG (1 mg each) or DPBS was administered i.p. in DPBS to SKH1 mice (6-9 weeks old; 6 animals per treatment group) followed two hours later by 0.5 mL DPBS^− i.p. containing 3×10^8 S. aureus. The mice were monitored several times on the day of injection and twice each day on subsequent days, observing ambulation, alertness, response to handling and skin temperature measured by infrared thermometry (Raytek MiniTemp MT4) using a 1 cm diameter infrasternal skin site. […]

The subject of data set [7] is S. aureus RN4850. Nature of the data set: Dermal infection model in mice (abscess formation). The note with it: for S. aureus-induced skin injury: flank injection.
Method: Additional control animals received 200 μL intradermal injections containing Cytodex beads or beads plus antibody. After injections were made the mice were monitored at least three times each day over a period of 4-7 days. At the conclusion of the monitoring period the mice were euthanized and tissues harvested for bacteriologic and histologic analysis.
SKH1 euthymic hairless mice, 6-8 weeks old were obtained from Charles River Laboratories and housed in the biocontainment vivarium for one week before use in experiments. […] Cytodex 1 beads (GE Healthcare 17-0448-01) were suspended (1 gram in 50 mL) in Dulbecco's Phosphate Buffered Saline without calcium/magnesium (Gibco) overnight at 20° C. The supernatant was decanted and the beads washed three times by suspension in DPBS and 1 G sedimentation followed by autoclaving (121° C., 15 psi, 15 minutes). Staphylococcus aureus RN4850 (AIP4) was grown from frozen stock (BHI+20% glycerol) on brain heart infusion agar plates 35° C. overnight. Three representative colonies were combined to inoculate 2 mL CYGP broth, and after overnight incubation without shaking, 0.25 mL of the culture was used to inoculate 5 mL of CYGP followed by incubation at 35° C., 200 rpm for 3 hours. The culture was centrifuged 1,300×G at 4° C. for 20 minutes, the supernatant poured off, and the bacterial pellet was suspended in 1 mL DPBS without calcium/magnesium. The SKH1 received 200 μL intradermal flank injections containing S. aureus (1×10^7 or 1×10^8 bacteria), 4 μL packed volume Cytodex beads, DPBS, anti-AIP4 antibody or control IgG (0.6 or 0.06 mg). Additional control animals received 200 μL intradermal injections containing Cytodex beads or beads plus antibody. After injections were made the mice were monitored at least three times each day over a period of 4-7 days. At the conclusion of the monitoring period the mice were euthanized and tissues harvested for bacteriologic and histologic analysis.
Subcutaneous injections of bacterial suspension or vehicle control were made in the flank of SKH1 hairless mice followed by close monitoring over seven days.
The mark [8] stands for this setting: AP4 Sups, competing hybridomas re-tested, average, read-out: AIP1 wt.
[9] abbreviates: selected AP4 mAbs, average of at least two measurements, read-out: Binding constant, AIP-1.
[10] abbreviates: selected AP4 mAbs, average of at least two measurements, read-out: Binding constant, AIP-2.
[11] abbreviates: selected AP4 mAbs, average of at least two measurements, read-out: Binding constant, AIP-3.
Where [12] appears, read: AP4 Sups, AP4-BSA coated plates, competing hybridomas re-tested, average, read-out: AIP4 wt.
Where [13] appears, read: selected AP4 mAbs, AP4-BSA coated plates, average of at least two measurements, read-out: Binding constant, AIP-4.

B1: AP4-4-20: anti-AIP4 human scFv from phage display, expressed in E. coli; probably AP4-20, SEQ ID NO: 53 (protein, listed as Homo sapiens)
scFv: QVQLQQSGAGLLRPSETLSLTCGLYGGSFSGHYWNWIRQSPEKGLVWIGEITHSGTTNYNPSLKSRVITSVDTSKNQYSLKLSFVTPADTAVYYCARGDYYGYWYFDLWGRGTLVTVSSGGGGSGGGGSGGGGSQSVLTQPPSVPVAPGQKVTISCSGSSSNIGNNYVSWYQQLPGTAPKLLIYDTNKRPSGIPDRFAGSKSGTSATLGITGLQTGDEADYYCGTWDSSLSAGVFGGGTKLTVL
Consider B1, for which the “hemolysins secretion (α-hemolysin western analysis)” value with S. aureus RN4850 [1] is reported as “clear reduction in hemolysins secretion”.

B2: AP4-29E10: murine monoclonal antibody raised against AP4 lactone hapten (antibody, V domains shown)
VH: EVQLQQSGPELEKPGASVKISCKASGHSFTGYNMNWVKQSNDKSLEWIGNIAPYYGVTAYNQKFKGKATLTGDKSSSTAYMQLKSLASEDSAVYYCVLDTSGYASWGQGTLVTVSA
VL: DIVMTQATASLTVSLGQRATISCRASKSVSTSGYSYMHWYQQKPGQPPKLLIYLASNLESGVPARFSGSGSGTDFTLNIHPVEEEDAATYYCQHSREVPYTFGGGTKLELK
As for B2, the Kd at AIP-1 (setting [8]) was roughly 3000 nM; at AIP-1 (setting [9]), roughly 3000 nM; on AIP-2 (AP4 Sups, read-out: AIP2 wt), greater than 25000 nM; at AIP-2 (setting [10]) it was greater than 25000 nM; on AIP-3 (AP4 Sups, read-out: AIP3 wt) it was greater than 25000 nM; on AIP-3 (setting [11]), greater than 25000 nM. Besides, the Kd was roughly 24 nM on AIP-4 (setting [12]); 2 to 110 nM on AIP-4 (AP4 Sups, tested 5 different times, read-out: AIP4 Kd, variability over 5 different tests); roughly 24 nM at AIP-4 (setting [13]).

B3: AP4-24H11: murine anti-AIP-4 monoclonal antibody; VH SEQ ID NO: 20, VL SEQ ID NO: 148 (antibody, V domains shown)
VH: EVKPQESGPGLVKPSQSLSLTCTVTGYSITSNYAWNWIRQFPGNKLEWMGFISSYGTTTYNPSLKSRFSITRDTSKNQFFLQLHSVTIEDTGTYFCTREGDYWGQGTTLTVSS
VL: DIVMTQATLSLPVSLGDQASISCRSSQRLVPSNGNIYLHWFLQKPGQSPKLLIYKLSSRFSGVPDRFSGSGSGTDFTLKISRVESEDLGIYFCSQTTHVPYTFGGGTKLEIK
modifications: Murine
With B3, the Kd at AIP-1 (setting [8]) is roughly 5000 nM. In addition, the Kd at AIP-1 (setting [9]) is roughly 5000 nM. For the same molecule, on AIP-2 (AP4 Sups, read-out: AIP2 wt), the Kd was greater than 25000 nM. For the same molecule, the Kd on AIP-2 (setting [10]) was greater than 25000 nM. Further, the Kd on AIP-3 (AP4 Sups, read-out: AIP3 wt) is greater than 25000 nM. Moreover, the Kd on AIP-3 (setting [11]) was greater than 25000 nM. Moreover, the Kd on AIP-4 (setting [12]) was roughly 98 nM. Besides, on AIP-4 (setting [13]), the Kd was roughly 90 nM. Further, in the data set on S. aureus RN4850 [1], the “exoprotein expression/secretion (SDS-PAGE)” value is “affects the expression and/or secretion of S. aureus exoproteins” and the “hemolysins secretion (α-hemolysin western analysis)” value was “clear reduction in hemolysins secretion”. In addition, in the data set on S. aureus RN4850 [1] (20-24 hours), the “protein A expression (Western blot)” value is on record as “significantly increased” and the “α-hemolysin expression (Western blot)” value is listed as “reduce the α-hemolysin expression”. For the same molecule, in the data set with S. aureus Wood 46, the “α-hemolysin production (Western blot)” value was “notable decrease in α-hemolysin production”. For the same molecule, the “hemolytic activity of treated supernatant on blood agar plates” value in the data set with S. aureus RN4850 [2] was “no hemolytic activity was observed”. Also, in [3], the “growth of S. aureus in presence of antibody” value was “no significant growth changes”. In addition, the static biofilm formation result with S. aureus RN4850 [4] was “increased biofilm formation”. In addition, in data set [5], the “eta mRNA fold-change” value is on record as −8.1±1 fold, the “hla mRNA fold-change” value is reported as −5.2±3.1 fold, the “rnaIII mRNA fold-change” value is on record as −77±48 fold and the “saeR mRNA fold-change” value was “+1.4±0.4 fold”. Moreover, in data set [5], the “sarA mRNA fold-change” value is listed as −2.1±0.6 fold and the “spa mRNA fold-change” value is “+5.7±3.6 fold”. Besides, in data set [5] (RN4850), the “decrease of eta transcription” value is “≈ 10 fold”, the “elevation of spa transcription” value is 3 to 5 fold and the “suppression of hla transcription” value is reported as 3 to 5 fold. The “reduction of rnaIII transcriptional level” value in [5] (RN4850, stationary growth phase) is greater than 50 fold. Besides, in data set [5] (RN4850, no significant changes), the “change in saeR transcription” value is no more than 2 fold and the “change in sarA transcription” value was no more than 2 fold. Further, the “PARP cleavage induced by RN4850 supernatant” value with Jurkat cells (supernatant (1%) of culture grown with antibody) was “prevented RN4850 supernatant (1%)-induced PARP cleavage”. Moreover, in the data set on Jurkat cells (supernatant of culture grown with antibody), the “PARP cleavage induced by Wood 46 supernatant” value was “partially inhibited the effect of Wood 46 supernatant”. Besides, the “survivors/number per group through the 8-day observation period” value in the data set on S. aureus RN4850 [6] was 6/6. For the same molecule, the “condition of mice injected with PBS/Cytodex containing antibody, no bacteria” value with S. aureus RN4850 [7] (0.6 mg antibody, occasional local induration, FIG. 7D) is “remained normal”. Moreover, the “S. aureus-induced skin injury” value with S. aureus RN4850 [7] (10^8 bacteria with 0.06 mg antibody) is listed as “not protective”. In addition, in the data set on S. aureus RN4850 [7] (10^8 bacteria with 0.6 mg antibody, 7 day observation), the “S. aureus-induced skin injury” value is on record as “skin injury was abrogated”.
